# In paper PMC10791855:
# Assays:
# Experiment in all cases: SEC; gel filtration on HiPrep 16/60 Sephacryl S-200 HR in 20 mM Tris-HCl, 1.5 M NaCl, 50 mM imidazole, pH 7.4; molecular mass estimated against standard proteins
# [1] = biological target: Universal stress protein USP5 from Haloferax mediterranei (Haloferax mediterranei)
# [2] = biological target: Universal stress protein USP21 from Haloferax mediterranei (Haloferax mediterranei)
# [3] = biological target: Universal stress protein USP28 from Haloferax mediterranei (Haloferax mediterranei)
substance,measurement,setting,value
Universal stress protein USP5 from Haloferax mediterranei (natural protein),stoichiometry N,[1],2
Universal stress protein USP21 from Haloferax mediterranei (natural protein),stoichiometry N,[2],2
Universal stress protein USP28 from Haloferax mediterranei (natural protein),stoichiometry N,[3],2
